The DeepSol protein solubility set

experiment: soluble on expression in E. coli; label from the status in PepcDB or PDB records

| Sequence | soluble on expression in E. coli |
| --- | --- |
| MGSDKIHHHHHHMINRKFINTVLAKRSTRSGLCQSATRTSRWLAVAIAILLANNSHADTSQTNVAAPAKTSACYLDGLDEQLQCGKITVLENPQLPDGKQIDIHFAILPAIKNTHPNEALLAIAGGPGQSAIENAAFFNRMLTKVRQQRDILLIDQRGTGKSNILSCDDDTTELLSMNDDDLDIIAMTEKCLGQIDADVSQYGSNTALTDFEAVREYLGYQKLHLYGISYGTRMAQLYMRHYPEALLTVTLDGVVPMQQSVVAIGDSIERGLNVLWRDCKSTPACQQQFPDLADEYNKVDQLLATAPISQQVRDPQTDELSEFLLTRSKFSGAIRMAMYMANIRALIPHAIHQAAQGNYQPILGIYTLTADSTGIAMGMHASVVCGEDIHRITDQMRKDAKESYISGNMLEGLEKTCQAWPIPQVDDNFSEPILSDIPTLLLSGELDPATPPNWGALAQEKLTKSKHFIAPYATHGVAGQSCGNDLVAQLVDQGSVKDINGECLQKDVRRSFYLNANTVEALPVIDTPTDIETTAPANTAADKE | not soluble |
| MMGDSVIYYVEQADEPVNRADERARKTFKYFWRELFWERRRIISALDFAMVKVPFFQDGEDGEICEHMWIDDIYFDGLYIYGVLNNEPGELTNVEQGESVCVPVDDISDWMFVCNGIPYGGFTIQAMRGQMTEEERTEHDAAWGIDFGDPGQILLVYEEKEHPENLEE | not soluble |
| MSTKLTGYVWDGCAASGMKLSSVAIMARLADFSNDEGVCWPSIETIARQIGAGMSTVRTAIARLEAEGWLTRKARRQGNRNASNVYQLNVAKLQAAAFSQLSDSDPSKSDASKSDPSKFDASKSGKKAGFHPSESGGDPSVKSKHDPSDKKPSRPDSSQPDTQTAEQDFLTRHPDAVVFSPKKRQWGTQDDLTCAQWLWKKIIALYEQAAECDGEVVRPKEPNWTAWANEIRLMCVQDGRTHKQICEMYSRVSRDPFWCRNVLSPSKLREKWDELSLRLSPSVSTYTEKREDPYFKASYDNVDYSQIPAGFRG | not soluble |
| MNKDLRPIIWNDSEKKLVLIDQRKLPNELVYFECKNYKDVCFAIKDMVVRGAPAIGVAAAYGMALAELNGEDMEKAYLELKKTRPTAVNLFWALEKIIAAKNSGKSLLDEAKLIHEEDIELCRKIGEIGEVLIDDFDTILTHCNAGALATSAYGTALSVIRFAHYNGKKINVLSDETRPRLQGAKLTCFELNYENIPVKAICDNTAGFMMSKGLVDKIIVGADRILSDYHVFNKIGTYSLAILAKYHNIPFYVAAPYSTFDFESKLEDIVIEERSESEVTHIDNVRIVAEGVSAYNFAFDCTPPELITGIITEKEIIYPNKLEHHHHHH | not soluble |
| MSLGLKIEEARVIVCCPGRNFVTLKIITNEGIYGLGDATLNGRELSVVSYLEDHVIPCLIGRDPHQIEDIWQFLYRGAYWRRGPITMSAIAAVDTALWDIKAKAAGLPLYQMLGGKSRTGVMVYGHANGRDIEETVEEVGRYIEIGYQAVRAQCGIPGLPSTYGVSNDKMFYEPADADLPSENIWSTSRYLDHVPKLFEKLRQVHGWDVHLLHDVHHRLTPIEAARLGQSLEPMRLFWLEDIVPAENQEGFRIIRNHTTTPLAVGEVFNTIWDCKNLIEEQLFDYIRSTVVHAGGITHLRRIADLAGLYHVKTGCHGATDLSPVCMGAALNFDLWVPNFGIQEYMRHAEITNEVFPHHYNFSNGFLHPGESPGHGVDLDEKLAAKYPYQRAYLPVNRLEDGTMWNWEGHHHHHH | not soluble |
| MTTLLNPYFGEFGGMYVPQILMPALNQLEEAFVSAQKDPEFQAQFADLLKNYAGRPTALTKCQNITAGTRTTLYLKREDLLHGGAHKTNQVLGQALLAKRMGKSEIIAEVGAGNHGVASALASALLGLKCRIYMGAKDVERQSPNVFRMRLMGAEVIPVHSGSATLKDACNEALRDWSGSYETAHYMLGTAAGPHPYPTIVREFQRMIGEETKAQILDKEGRLPDAVIACVGGGSNAIGMFADFINDTSVGLIGVEPGGHGIETGEHGAPLKHGRVGIYFGMKAPMMQTADGQIEESYSISAGLDFPSVGPQHAYLNSIGRADYVSITDDEALEAFKTLCRHEGIIPALESSHALAHALKMMREQPEKEQLLVVNLSGRGDKDIFTVHDILKARGEI | soluble |
| MSLEKTKLPWDEFFSLNKDINHTYFTPEDFSGDEDLIAKTTEQFVKQEIVPQMENIEQHNYKVSRQLFEKAGELGLLGIEVPEDYGGFELGKAVSGLVAEKMGYAGAFSVSFNIHAGVGTLPYIYYGTKEQKEKYLPKIASGEWIGAYALTEPNAGSDALSAKTSAVLNEEGTAWKLNGEKQWITNAHMADVYVVFAKTNKGMTAFIVERTCEGVSIGLEEKKMGIKGSSTATLILEDVVIPAENVLGEVGKGHHVALNILNFARLKLAFGNIGTAKQAIGLSVQYGKERKQFQTELVDFTMIQEKIANMIIATYGAESAAYRTAGVIDEAIHESDEDLMKKMSQFAIECALNKVNASETLAYIVDEAVQIHGGYGYMQEYEVERLYRDARISRIFEGTNEINRLTVAKMLMKQIEQLEEGHHHHHH | not soluble |
| MPEYKAPLRDMRFLIDEVFDFHGRYQALGASDATPDMVAAILDEGSKFCEQVLAPLNRSGDEEGCHFDNGVVTTPKGFKEAYAQYVEGGWNGVASDPAYGGQGLPHSLGLLLSEMIGASNVSWGMYPGLTRGAMSAIHAHGSQAQKDLYLARMTAGTWTGTMCLTEPHCGTDLGIIKTRAVPNADGSHAISGTKIFISAGEHDLSENIVHLVLAKLPDAPAGTKGISLFIVPKFLPDAEGNVGARNAVSCGSIEHKMGIKASATCVMNFDGATGYLIGEPNKGLHCMFTMMNHARLGTGMQGLCLGETSYQGAVRYARERLQMRSLTGPKAPDKPADPIIVHPDVRRMLLTMKAFNEGNRALAYFTAQLLDTEHLSQDAAERERAADLLAFLTPICKAFMTETGQEVTNLGMQVYGGHGYIREWGMEQLVRDCRIAQIYEGTNGIQALDLLGRKVLGSQGKLLRGFTKLVHQLCQAQAEHPQLKGQVAQLAALNAQWGELTQQVGLAAMKNADEVGAASVDYLMFSGYVTLAYFWLRIALVAREKLDAGSGEAAFYEAKLATADFYFSR | not soluble |
| GHMQTQGLAKDAWEIPRESLRLEVKLGQGCFGEVWMGTWNGTTRVAIKTLKPGTMSPEAFLQEAQVMKKLRHEKLVQLYAVVSEEPIYIVTEYMSKGCLLDFLKGEMGKYLRLPQLVDMAAQIASGMAYVERMNYVHRDLRAANILVGENLVCKVADFGLARLIEDNEYTARQGAKFPIKWTAPEAALYGRFTIKSDVWSFGILLTELTTKGRVPYPGMVNREVLDQVERGYRMPCPPECPESLHDLMCQCWRKDPEERPTFEYLQAFLEDYFTSTEPQYQPGENL | soluble |
| MSLKPESPNQDDFIIITMENLALYAIFDGHGPYGHDVSNYVQKELPYMIIKNENFLKNPKEVFTKAFLNIHENIERTTNAYLDSFTNKNSDSTMSGTTATIIVHLFKEKKLYVAYVGDSRAVLGKRKNGSKQLSAVELTKDHKPNCAAEKKRILSSGGQVMKLEGDIPYRVFIKNKFYPGLAMSRAIGDTIGHQIGIIAEPDFIEVNINEDEDILVLICSDGVWEFISSEEAVNLIYEFGYNNVQDAVENLARESWDRWLNEEENIVDDITIQAIYLSEKSKYLKEGHHHHHH | not soluble |
| MEGVKKIKNPSTVKDELLELMFRIYRSTNGKYPALEWVKRKPNPNDFNGFREVYEPFLKFRLSQEFDELYTYQKDNRIIGTIALVYKRIKEKGIWWVPEELMNEKVGLIEFFVVDPEFQGKGIGSTLLEFAVKRLRSLGKDPYVVTFPNLEAYSYYYMKKGFREIMRYKEFVILKFNHKKFQLEHHHHHH | soluble |
